# Assays:
# [1] = target: PEG7-Octyl-Salmon Calcitonin, Diconjugate (salmon) (UniProt P01263)
# [2] = target: salmon calcitonin (salmon) (UniProt P01263)
# [3] = target: PEG7-Octyl-Salmon Calcitonin, Diconjugate (salmon) (UniProt P01263); remark: listed apart in the source
# [4] = target: salmon calcitonin (salmon) (UniProt P01263); remark: listed apart in the source
Substance,"% Remaining Following 0.5 U/mL Chymotrypsin Digest (60 min, non-formulated) [1]","% Remaining Following 0.5 U/mL Chymotrypsin Digest (60 min, non-formulated) [2]","% Remaining following 1 U/mL Trypsin Digest (180 min, non-formulated) [3]","% Remaining following 1 U/mL Trypsin Digest (180 min, non-formulated) [4]"
Chymotrypsin (enzyme),6 % remaining,5 % remaining,,
Trypsin (enzyme),,,61 % remaining,31 % remaining
